B1: SSAP_32: SEQ ID NO: 201 (protein)
chain: EFETDEEEKEMSNNQLSTQQAKRDIAIDTSVWTFQDVKRYFDPQNLLTEKQVGQALSLIKGRNLNPLANEVYIVAYKKKTGGTEFSLIVSKEAFLKRAAQNPNYEGFEAGVVTVDTDGVMHERKGALMLPGDTLVGGWARVYRKNFKVPVEIFVSREEYDKKQSTWNAMPATMIRKTALVNALREAFPEDLGNMYTEDDGGETFDRIKQAEPVESREDVMARKMAQIEQMKQEQAQRQIDTSYPTDDVIDPDDEPAQGELLEDLEY
B2: SSAP_263: SEQ ID NO: 432; Gulosibacter molinativorax (protein)
chain: TDLTEKIATKAVAVKKDPKIADLMKSYEPQFARSLGKSMDAAKFGQDALTAIKQTPKLLEADQRSLFGAIFLAAQLKLPVGGPLAQFHLTPRKVAGEMTVVPIIGYNGYIQLAMNTGLYSKVGAFTVHANDHFRTGANSERGEFYDYERATGDRGELTGVIGYAKVKGFDESSFVYLDAATVRERHRPKFWDKTPWASDEGEMFRKTAIRVLQKYLPKSIEAAPLALAAQADQATVRRVDGVDDLQIDHEDIAIAEVIEDD
modifications: Gulosibacter molinativorax
B3: SSAP_81: SEQ ID NO: 250 (protein)
chain: TDVKQELERKVGKQDSTAVRLTKNMSIPDMIKALEPEIRRALPAVLTPERFLRMALSAVNNTPKLAECTPMSFIAAMMNAAQLGLEPNTPLGQAYLIPYKNKNQLECQFQIGYKGIIDLAYRTGQMQMIQAHAVHEFDDFEYEYGLNPKLIHRPGDGNRGEITYFYGLFKLVNGGFGFEVMNREAMEAFAQQYSQSYGSQYSPWVKNFEDMAKKTVIKKALKYGPVKAEFQKAISMDETIKTEIAVDMTEVQNEESE
B4: SSAP_287: SEQ ID NO: 456; Leifsonia xyli subsp. xyli str. CTCB07 (protein, listed as Leifsonia xyli)
chain: AVKKNPTIEDYLIKYEPEFQRALGASMDAAKFAQDALTAIKQNPKIGHSDPRSLFGALFLAAQLKLPVGGPLAQFHLTTRTVKGNLTVVPIVGYGGYVQLIMNTGLYSRVSAFLIHAGDYFVTGANSERGEFYDFRRADSDRGEVKGVIAYAKVKGHNESSWVYIDAETMRAKHRPKYWESTPWADDAGEMFKKTGIRVLQKYLPKSVESLNVALAASADQAIVRKVDGVPDLDIQHDRDTETVAVPEQPVSVPQPGDET
B5: SSAP_162: SEQ ID NO: 331; Helcococcus sueciensis (protein, listed as Helcococcus sueciensis)
chain: AQAKELLENKTNNTVKKSEKQTMENLLTLMADEIKKALPENVKSERFRRIALTAFNGNKDLQQCEPTSFLAAMMQSAQLGLEPNTPLGQAYLIPYNNSKKNIKEVQFQVGYKGMLDLAHRTNQYKNIQANIVYEKDEFDIEYGLNPKLKHIPNMKEDRGQAIGYYAVYNLINGGQGFEYMTRAEVEKHAQKFSKTYRNGPWQTDFDEMAKKTVLKKVLKYAPMSTELQEATAIDERVVNEENIKSKNEDKFVDVDWSYVDDVEEDVIE
B6: SSAP_203: SEQ ID NO: 372; Oenococcus oeni (protein, listed as Oenococcus oeni)
chain: SNELKTILNAPTTKEKFDEVLGRNAQGYINSVLNAVGNSKLLQNASPNSILSGAMKAATLNLSIDPNLGYAYFVPYGHEAQLQIGYQGLIQLAQRSGQIKILNAAPIYDEQFKSLDPVTGKLTLNKKIVPDTNKKPTGYVAYLKTVTGFEHTEFMSYADIEKFAKRFSKSFNSSTSPWKTDFNAMAKKTLIKQVLKYAPMSIDLQTAVSADNDDIEPKDITPDEDKETVDKISNLISDNKQDDTLSQLEEVANANN
B7: SSAP_142: SEQ ID NO: 311; Roseburia intestinalis (protein, listed as Roseburia intestinalis)
chain: GDIRSELAKKAEQTQGNTKLTKSMSIADLIKAMEPEIQKALPSVITPERFTRMALSALNTTPKLQECTPMSFLAALMNAAQLGLEPNTPLGQAYLIPYKNKNVLECQFQLGYRGMIDLAYRNGHMQSIEAQAVYENDVFSYALGLHPELVHKPTLEEKGALKAFYAIFRLDNGGFRFEVMGKTYIDWYANRYSKAFTSEFSPWKSNYEGMAKKTVIKQLLKYAPLKTEFQRALSTDETIKNSLNVDMGEVLSEDIIDMPCEEVA
B8: SSAP_155: SEQ ID NO: 324; Staphylococcus nepalensis (protein, listed as Staphylococcus nepalensis)
chain: ATQNQFKNQLTQKKENNNQPQQKAVGPKQEISNLLDRMAPQIQKALPQHMSAERMARIAMTAVSSTPKLLECDPKSLIGALMQSSQIGLEPNTNLGQAYLIPYGKEVQLQVSYLGMIELANRSKQYKAIYAHEVYPEDYFEYQYGLQKDLIHKPADNPQSEPIGYYAVYHLLNGGYDFVYWSKAKIDDHARQFSKAVQKGWQSPWKTNFNAMAKKTVLKDLLKFAPKSIEMNNAVSSDSKAQQIDDDGNIIDVTDYSQVNDEPEQLQEGQ
B9: SSAP_68: SEQ ID NO: 237 (protein)
chain: TQQMPIEAQGEPTKELQQKAAVDRFNATLHQMQNEIARALPKHMTGDRFVRIVLTEVRKDPTLALCDPLTMFGSLLTAAALGLEPGLNGECWLVPRKNHGTLEAQLQVGYRGVVKLFWQNPAAAYLDTGYVCERDHFRFAKGLNPILEHTPAEGDRGKVVRYYAVAGLNTGARVFDVFTPAQIKTLRGGKVGSNGDIPDPEHWMERKTALLQVLKLMPKSTQLAAVPAADGRAHTISDAQQIFGGVDTSTGEVLEAEPVEGDAA
B10: SSAP_224: SEQ ID NO: 393; Clostridium tyrobutyricum (protein, listed as Clostridium tyrobutyricum)
chain: SDKKMVVLGESHKALSKLLETKQEALPKDFNKARFLQNCMTVLQDTKDIDKCQPISVARTMLKGAFLGLDFFNRECYAIPYGGNLQFQTDYKGEIKLAKKYSFNSIKDIYAKIVREGDDFQESIEDGRQTINFKPLPFNNGEIIGAFAVCLFQDGSMLYETMTKQEIEDIRNNFSKAKNSPAWVKTPGEMYKKTVLRRLCKLIELDFDSVETKKTYDETSEFEFGSANHEVSNFDKDDSNIIEADAEIQDDVQEGDGEDE
B11: SSAP_276: SEQ ID NO: 445; Oceanobacillus sp. Castelsardo (protein, listed as Oceanobacillus sp.)
chain: ATNSTLKNQISNKKQGNNQVGKTQGTTMKQLLASPAVMNRFEEVLGKRANQFTASILGLYNSEKMLQKAEPMSVISSAMIAATLDLPVDKNLGYAWIVPYGGKAQFQMGYKGYIQLALRTGQYRNINVIEVYEGELKKWDRLTEEIELDFESRTSDKVIGYTGYFELINGFRKTVYWSKEDVEKHKKRFSKSDFGWKNDWDAMARKTVIRNMLNKWGILSIDMQKGMVEDSKDPVEVNEEFSSDVIDADYEVVGENEQQDFTVEENA
B12: SSAP_165: SEQ ID NO: 334; Robinsoniella sp. KNHs210 (protein, listed as Robinsoniella sp.)
chain: TTRTGNIKEELAKKAEGTNGDTRLTKAMSIADLIKAMEPEIKKALPEVITPERFTRMALSALNTTPKLRECTQISFLAAMMNAAQLGLEPNTPLGQAYLIPFNNKGTMECQFQIGYKGMIDLSYRNPQMQMISAQAVYENDEFKYELGLNPTLIHRPVLRGRGEVILFYGLFKLTNGGYGFEVMSKEEMDAYAKAYSKAIDSSFSPWKSNYNGMAKKTVIKQVLKYAPIKADFRKALSSDETIKNEISENMSEIHGEIIFDTDYMEESA
B13: SSAP_101: SEQ ID NO: 270; Halomonadaceae bacterium R4HLG17 (protein)
chain: SEVATQDTLGKELQQHSGQQKKPMPTTIQGMLKDPRFTSQIARALPKHITPDRITRIALTEVNKTPALGKCDPVTLFGSIIQSAQLGLELGGALGHAYLVPYGNQAQFIIGYRGMIDLARRSGQMVSLQAHTVHDNDEFDFEYGLDEKLRHVPARGDRGPMVAVYSVAKLVGGGHQIEVMWKEDVDAIRSKSKAGNSGPWRDHYEEMAKKTAIRRLFKYLPVSVEMQKAVALDEQAEAGVQDNNVFDGEFSYGEAE
modifications: Halomonadaceae bacterium R4HLG17

Tests used:
Type in all cases: cell-based
[1] = tested on: gene editing with Cas9; test: Screen of 322 new SSAP proteins, gene editing activity with Cas9 (Table 5); parameters: Cas9 with SSAP activity: scale not given here
How it was run: (§1)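 Read-out is gene editing activity. Candidates come from sequence data mining, are made synthetically, and are tested alongside either nuclease-active Cas9 or catalytically dead dCas9.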

[2] = tested on: gene editing with dCas9; test: Screen of 322 new SSAP proteins, gene editing activity with dCas9 (Table 5); parameters: dCas9 with SSAP activity: scale not given here
How it was run: as §1

[3] = tested on: gene editing with Cas9 and dCas9; test: Screen of 322 new SSAP proteins, activity across all experiments (Cas9 and dCas9, Table 5); parameters: scale not given here
How it was run: as §1

Row | Molecule | Cas9 with SSAP activity [1] | Cas9 with SSAP activity (normalized) [1] | dCas9 with SSAP activity [2] | dCas9 with SSAP activity (normalized) [2] | Activity across all experiments [3]
1 | B1 | −0.435 | −1.203 | −2.180 | −0.281 | −1.308
2 | B2 | −1.201 | −0.666 | −2.069 | −0.685 | −1.635
3 | B3 | −2.257 | −0.341 | −2.360 | −0.367 | −2.308
4 | B4 | 0.085 | 0.091 | −2.044 | −1.493 | −0.980
5 | B5 | 0.273 | 0.278 | −2.073 | −1.380 | −0.900
6 | B6 | −2.670 | −0.476 | −2.129 | −0.311 | −2.400
7 | B7 | 0.197 | 0.073 | −2.145 | −1.216 | −0.974
8 | B8 | −2.139 | −0.908 | −2.105 | −0.826 | −2.122
9 | B9 | 1.110 | 4.696 | −2.230 | −0.296 | −0.560
10 | B10 | 3.010 | 2.232 | −2.113 | −0.351 | 0.449
11 | B11 | −2.551 | −0.452 | −2.052 | −0.337 | −2.301
12 | B12 | −0.918 | −0.925 | −2.157 | −0.568 | −1.538
13 | B13 | −1.798 | −0.307 | −2.273 | −0.413 | −2.036

Source: patent US20250034594A1, “RNA-GUIDED GENOME RECOMBINEERING AT KILOBASE SCALE” (THE BOARD OF TRUSTEES OF THE LELAND STANFORD JUNIOR …, priority 2021, published 2025)
